Publication PMC9212699

Tests used:
[1] = molecular target: SARS-CoV-2 Omicron BA.3 RBD protein with His-tag, spike residues 319-541 (SARS-CoV-2); experiment: SPR
[2] = molecular target: BA.2 RBD with the S408R mutation (SARS-CoV-2); experiment: SPR

Sequence of Human ACE2 protein, residues 19-615 (produced by HEK293F cells, used for SPR) (Q9BYF1 19-615): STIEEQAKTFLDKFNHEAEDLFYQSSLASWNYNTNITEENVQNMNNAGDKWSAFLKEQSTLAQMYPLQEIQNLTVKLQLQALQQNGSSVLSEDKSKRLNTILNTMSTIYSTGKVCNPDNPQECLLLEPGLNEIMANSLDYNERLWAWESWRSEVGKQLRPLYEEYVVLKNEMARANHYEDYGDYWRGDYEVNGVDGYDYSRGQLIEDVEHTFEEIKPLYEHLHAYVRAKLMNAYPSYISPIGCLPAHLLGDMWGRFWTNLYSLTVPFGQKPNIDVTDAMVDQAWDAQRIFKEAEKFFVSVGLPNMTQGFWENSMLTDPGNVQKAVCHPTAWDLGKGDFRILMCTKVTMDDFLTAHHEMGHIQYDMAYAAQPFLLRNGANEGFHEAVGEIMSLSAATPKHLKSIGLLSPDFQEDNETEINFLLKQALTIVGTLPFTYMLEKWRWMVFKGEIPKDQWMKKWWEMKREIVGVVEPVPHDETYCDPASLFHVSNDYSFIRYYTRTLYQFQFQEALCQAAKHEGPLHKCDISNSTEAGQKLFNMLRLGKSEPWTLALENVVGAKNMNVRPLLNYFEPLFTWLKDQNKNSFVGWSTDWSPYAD

Human ACE2 protein, residues 19-615 (produced by HEK293F cells, used for SPR) (from UniProt Q9BYF1-1 19-615) (receptor)
Kd [1]: 22.1 nM | Kd [2]: 16.4 nM
